Assay results: PMC11577023

Assays:
Test in all cases: […] (pH 7.4), 0.5 mL/min; […]
[1] = target: rTET-NA derived from A/Michigan/45/2015 N1 (not stated | influenza A virus A/Michigan/45/2015 (H1N1))
[2] = target: rTET-NA derived from A/Singapore/INFIMH-16-0019/2016 N2 (not stated | influenza A virus A/Singapore/INFIMH-16-0019/2016 (H3N2))
[3] = target: rTET-NA derived from B/Phuket/3073/2013 (B/Yamagata/16/88-like lineage) (not stated | influenza B virus B/Phuket/3073/2013 (B/Yamagata/16/88-like lineage))
[4] = target: rTET-NA derived from B/Colorado/06/2017 (B/Victoria/2/87-like lineage) (not stated | influenza B virus B/Colorado/06/2017 (B/Victoria/2/87-like lineage))

“rTET-NA derived from A/Michigan/45/2015 N1 (enzyme)” gave a stoichiometry N [1] of 4.

Substance “rTET-NA derived from A/Singapore/INFIMH-16-0019/2016 N2 (enzyme)” has a stoichiometry N [2] of 4.

“rTET-NA derived from B/Phuket/3073/2013 (B/Yamagata/16/88-like lineage) (enzyme)” gave a stoichiometry N [3] of 4.

“rTET-NA derived from B/Colorado/06/2017 (B/Victoria/2/87-like lineage) (enzyme)” showed a stoichiometry N [4] of 4.
